“Also recorded” adds a separate entry of the source.
Experiments:
Assay type in all cases: cell-based, human
[1] = tested on: κAPC; assay: Proinflammatory phenotype of κAPC (KX2 refinement); conditions: in the presence of tumor cells
Text: Karnelian X1 cytokines, additional cytokines, TLR ligands and other factors for phenotypic optimization of cMo-derived APCs were further tested. These efforts led to the formation of Karnelian X2, which acted to further bolster κAPC for phagocytosis, immunogenic antigen presentation, and T cell priming, and also endowed κAPC with a proinflammatory phenotype and the ability to resist repolarization in the tumor microenvironment. KX2™ comprises cytokines (choices of IFNα, IFNγ and TNFα), TLR ligands (choices of Poly IC, CpG, R848), and TPI-1.

[2] = tested on: IL-10; assay: IL-10 production by cMo
Text: Particularly, high levels of IL-10 and IL-6 were detected in Karnelian X1. Further cytokine depletion assays confirmed the critical role of IL-10, and its depletion largely (60-80%) diminished the capacity of cMo adhesion and survival (FIG. 5B).

[3] = tested on: monocytes from cancer patients (cMo); assay: cMo survival in vitro (STAT3 activators, inhibitors, M-CSF/GM-CSF, KX1)
Text: After two days, the T cell culture medium was used to treat cMo.
IL-10/IL-10R signaling activates the downstream STAT3 signaling pathway.
(§1) The mechanisms by which KX1 could promote cMo survival was further studied.

[4] = tested on: Akt, Erk1/2, STAT3, caspase-9 and caspase-3 in cMo; assay: Survival and apoptosis signal transduction in cMo (Western blotting)
Text: (§2) Examination of Akt and Erk1/2, as well as other signaling molecules, detected similar total levels in Mo versus cMo (FIG. 2C), ruling out the absence of protein phosphorylation due to reduction of protein translation.
as §1
The role of IL-10 and other key factors in KX1 was further studied. As shown in FIG. 9A-9D, depletion of IL-10 diminished (>70%) KX1-mediated activation of Akt, Erk 1/2, and STAT3, and this global reduction of survival signal was associated with an increase in cell death signal through activation of caspase-9 and caspase-3.
As shown in FIG. 10A-10C, triple cytokine combination (C-combo V1) was capable of achieving >80% cMo differentiation, although each component alone was not sufficient.

[5] = tested on: monocytes from healthy donors (Mo); assay: Response of monocytes from healthy donors (Mo) to M-CSF and GM-CSF
Text: Similarly, cMo poorly respond to GM-CSF alone or GM-CSF plus IL-4 that drives DC differentiation (data not shown). […] Parallel experiments testing the same M-CSF and GM-CSF reagents successfully differentiated Mo from healthy donors with >90% survival rates.
as §2

[6] = tested on: monocytes from cancer patients (cMo); assay: Cytokine depletion assays of Karnelian X1 (cMo survival/adhesion and differentiation); conditions: depletion assays
Method: The differentiation of cMo from >100 cancer patient samples was tested.
The role of IL-10 and other key factors in KX1 was further studied.

O=C1C=CC(=O)C(c2cc(Cl)ccc2Cl)=C1 [TPI-1]
proinflammatory phenotype of κAPC [1]: promotes proinflammatory phenotype of κAPC

B1: IL-12: IL-12 family cytokine, STAT3 activator (protein, UniProt P29459 23-219; P29460 23-328, looked up)
Interleukin-12 subunit alpha: RNLPVATPDPGMFPCLHHSQNLLRAVSNMLQKARQTLEFYPCTSEEIDHEDITKDKTSTVEACLPLELTKNESCLNSRETSFITNGSCLASRKTSFMMALCLSSIYEDLKMYQVEFKTMNAKLLMDPKRQIFLDQNMLAVIDELMQALNFNSETVPQKSSLEEPDFYKTKIKLCILLHAFRIRAVTIDRVMSYLNAS
Interleukin-12 subunit beta: IWELKKDVYVVELDWYPDAPGEMVVLTCDTPEEDGITWTLDQSSEVLGSGKTLTIQVKEFGDAGQYTCHKGGEVLSHSLLLLHKKEDGIWSTDILKDQKEPKNKTFLRCEAKNYSGRFTCWWLTTISTDLTFSVKSSRGSSDPQGVTCGAATLSAERVRGDNKEYEYSVECQEDSACPAAEESLPIEVMVDAVHKLKYENYTSSFFIRDIIKPDPPKNLQLKPLKNSRQVEVSWEYPDTWSTPHSYFSLTFCVQVQGKSKREKKDRVFTDKTSATVICRKNASISVRAQDRYYSSSWSEWASVPCS
induction of IL-10 in cMo [2]: induction of IL-10
cMo survival (and differentiation) on supplementation ([3]; IL-10-depleted KX1 / in place of IL-10): could replace IL-10 to support cMo survival and differentiation
Effectiveness (cMo survival rate) ([3]; in vitro, at optimal concentration): 50-70%
Optimal concentration (ng/mL) ([3]; promoting cMo survival in vitro): >10 ng/mL (10-100)

B2: M-CSF: classical macrophage differentiation factor (protein, UniProt P09603 33-554, looked up)
Macrophage colony-stimulating …: EEVSEYCSHMIGSGHLQSLQRLIDSQMETSCQITFEFVDQEQLKDPVCYLKKAFLLVQDIMEDTMRFRDNTPNAIAIVQLQELSLRLKSCFTKDYEEHDKACVRTFYETPLQLLEKVKNVFNETKNLLDKDWNIFSKNCNNSFAECSSQDVVTKPDCNCLYPKAIPSSDPASVSPHQPLAPSMAPVAGLTWEDSEGTEGSSLLPGEQPLHTVDPGSAKQRPPRSTCQSFEPPETPVVKDSTIGGSPQPRPSVGAFNPGMEDILDSAMGTNWVPEEASGEASEIPVPQGTELSPSRPGGGSMQTEPARPSNFLSASSPLPASAKGQQPADVTGTALPRVGPVRPTGQDWNHTPQKTDHPSALLRDPPEPGSPRISSLRPQGLSNPSTLSAQPQLSRSHSSGSVLPLGELEGRRSTRDRRSPAEPEGGPASEGAARPLPRFNSVPLTDTGHERQSEGSFSPQLQESVFHLLVPSVILVLLAVGGLLFYRWRRRSHQEPQRADSPLEQPEGSPLTQDDRQVELPV
cMo responsiveness to differentiation factor ([3]; over twenty cMo samples, various solid tumors): non- or poor responsiveness
activation of Akt, Erk1/2, STAT3 in cMo [4]: failed to activate Akt and Erk1/2
caspase-9 and caspase-3 cleavage in cMo [4]: increased caspase-9 and caspase-3 cleavage; also recorded: did induce apoptotic signals via cleavage of caspase-9 and caspase-3
survival signal transduction in Mo (activation of Akt and Erk1/2) [5]: induced strong survival signal transduction in Mo cells
role of the cytokine in Karnelian X1 for cMo survival and differentiation [6]: dispensable
